Source: patent US11434289B2, “Anti-GPR20 antibody and anti-GPR20 antibody-drug conjugate” (DAIICHI SANKYO COMPANY, LIMITED, priority 2017, dated 2022)
Residue numbers refer to the chain shown, from its start.

Tests used:
human GPR20 = target: T1, human GPR20 (Homo sapiens, UniProt Q99678); test: Analysis of GPR20-binding site of anti-GPR20 antibodies by Cell-ELISA; settings: EC1 = positions 1 to 48, EC2 = positions 108 to 125 of human GPR20
T1 construct: expressed in transfected cells; host or cells: 293T cells, transient, Lipofectamine 2000
Description: (§1) The culture supernatant of the 293a cells transfected with the expression vector prepared in Example 1)-4-1 was removed, and the culture supernatant from each hybridoma was then added to the 293a cells transfected either with pcDNA3.1-hGPR20 or pcDNA3.1. The cells were left standing at 4° C. for 1 hour. The cells in the wells were washed once with PBS (+) supplemented with 5% FBS, and thereafter, Anti-Rat IgG-Peroxidase antibody produced in rabbit (Sigma-Aldrich Co. LLC) that had been 500-fold diluted with PBS (+) supplemented with 5% FBS was added to the wells. The cells were left standing at 4° C. for 1 hour. The cells in the wells were washed three times with PBS (+) supplemented with 5% FBS, and thereafter, OPD chromogenic solution (which had been prepared by dissolving o-phenylenediamine dihydrochloride (Wako Pure Chemical Industries, Ltd.) and H2O2 in an OPD solution (0.05 M trisodium citrate, 0.1 M disodium hydrogen phosphate 12-water; pH 4.5), so that the substances became 0.4 mg/ml and 0.6% (v/v), respectively) was added in an amount of 100 μL/well to the wells. A coloring reaction was carried out with occasional stirring. Thereafter, 1 M HCl was added to the plate (100 μL/well) to terminate the coloring reaction, followed by measurement of the absorbance at 490 nm using a plate reader (ENVISION: PerkinElmer, Inc.).
Binding sites of anti-human GPR20 antibodies were classified by measuring their binding activity against mouse GPR20, N-terminally FLAG-tagged human GPR20, and human/mouse chimeric GPR20 in which each of four extracellular regions (EC1, EC2, EC3, and EC4) of human GPR20 was substituted with a mouse GPR20-derived sequence, respectively, by Cell-ELISA. FIG. 21 is a diagram of the comparison between the amino acid sequences of human GPR20 (NP_005284) and mouse GPR20 (NP_775541). The four extracellular regions EC1 to EC4 are represented by positions in the amino acid sequence of human GPR20. EC1 corresponds to positions 1 to 48, EC2 corresponds to positions 108 to 125, EC3 corresponds to positions 190 to 196, and EC4 corresponds to positions 260 to 275. […]

[1] = target: T2, human GPR20 with EC1 substituted with a mouse GPR20-derived sequence (Mus musculus, UniProt Q8BYC4, A277V/A334G/A336G/DEL187-187/DEL317-317/F111Y/F318R/G190S/I170A/I299V/I338H/I343A/K166R/K271H/K319E/K330R/M323G/N268D/P337R/P351A/Q152R/R229H/R314H/S188T/S192P/S345P/T332S/T347A/T353A/T60A/T88I/V178A/V247I/V269M/V56A/W159C/Y312G); test: Cell-ELISA binding to human/mouse chimeric GPR20 (EC1 substituted); settings: hGPR20_mECD1, FIG. 22
T2 construct: expressed in transfected cells; host or cells: 293α cells, transient
Description: as §1
An expression vector for human GPR20 with EC1 substituted with a mouse GPR20-derived sequence was constructed using an In-Fusion (registered trademark) HD Cloning Kit (Clontech Laboratories, Inc.). Specifically, using the full-length human GPR20 expression vector pcDNA3.1-hGPR20 produced in Example 1 as a template, a PCR reaction was carried out with the primer set given below and KOD FX DNA polymerase (Toyobo Co., Ltd.) at 10 cycles each involving 98° C. for 10 seconds, 58° C. for 30 seconds, and 68° C. for 7 minutes to amplify a DNA fragment comprising the vector sequence. […]

T1 sequence (Q99678 whole entry): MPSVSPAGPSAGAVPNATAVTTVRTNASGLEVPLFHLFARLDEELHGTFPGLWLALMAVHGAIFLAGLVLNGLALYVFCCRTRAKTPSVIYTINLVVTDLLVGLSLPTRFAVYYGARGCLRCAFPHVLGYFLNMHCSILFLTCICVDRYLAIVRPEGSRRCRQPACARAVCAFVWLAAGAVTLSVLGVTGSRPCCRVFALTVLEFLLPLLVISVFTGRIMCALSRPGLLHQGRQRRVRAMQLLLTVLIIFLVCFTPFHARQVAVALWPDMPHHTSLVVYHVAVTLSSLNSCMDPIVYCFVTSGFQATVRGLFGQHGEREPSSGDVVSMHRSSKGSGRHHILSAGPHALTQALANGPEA
T2 sequence (Q8BYC4 with tags, fused parts or gaps with the stated changes): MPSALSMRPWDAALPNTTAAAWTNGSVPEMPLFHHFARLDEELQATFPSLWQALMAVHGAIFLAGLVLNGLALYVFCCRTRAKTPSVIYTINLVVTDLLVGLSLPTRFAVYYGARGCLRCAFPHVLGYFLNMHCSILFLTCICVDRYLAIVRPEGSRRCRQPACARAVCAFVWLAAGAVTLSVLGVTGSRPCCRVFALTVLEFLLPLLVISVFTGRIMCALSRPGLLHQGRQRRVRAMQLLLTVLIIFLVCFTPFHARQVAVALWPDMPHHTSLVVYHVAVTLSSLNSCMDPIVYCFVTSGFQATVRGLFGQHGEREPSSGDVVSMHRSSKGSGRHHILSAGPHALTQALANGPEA

B1: 04-079: rat anti-human GPR20 antibody; heavy chain SEQ ID NO: 12, light chain SEQ ID NO: 17 (antibody, listed as Rattus norvegicus)
heavy: MEWNWVFLFLLSVTAVVHSQVQLQQSGAELAKPGSSVKISCKASGYTFTSYYITWIKQTTGQGLKYIGYINPGSGHTNYNEKFKGKATLTVDKSSSTAFMQLSSLTPDDSAVYYCARGAGGFLRIISKFDYWGQGVMVTVSSAQTTAPSVYPLAPGCGDTTSSTVTLGCLVKGYFPEPVTVTWNSGALSSDVHTFPAVLQSGLYTLTSSVTSSTWPSQTVTCNVAHPASSTKVDKKVERRNGGIGHKCPTCPTCHKCPVPELLGGPSVFIFPPKPKDILLISQNAKVTCVVVDVSEEEPDVQFSWFVNNVEVHTAQTQPREEQYNSTFRVVSALPIQHQDWMSGKEFKCKVNNKALPSPIEKTISKPKGLVRKPQVYVMGPPTEQLTEQTVSLTCLTSGFLPNDIGVEWTSNGHIEKNYKNTEPVMDSDGSFFMYSKLNVERSRWDSRAPFVCSVVHEGLHNHHVEKSISRPPGK
light: METDRLLLWVLLLWVPGSTGDTVLTQSPALAVSLGQRVTISCRASKSVSTYMHWYQQRSGQQPKLLIYSASNLESGVPSRFSGSGSGTDFTLTIDPVKADDITNYYCQQSNELPYTFGAGTKLELKRADAAPTVSIFPPSTEQLATGGASVVCLMNNFYPRDISVKWKIDGTERRDGVLDSVTDQDSKDSTYSMSSTLSLTKADYESHNLYTCEVVHKTSSSPVVKSFNRNEC
modifications: SIGNAL (1)..(19); SIGNAL (1)..(20)
GPR20 extracellular region recognized (human GPR20): EC1, EC2
binding activity after substituting EC1 of human GPR20 with that of mouse-derived GPR20 [1]: lost binding activity

B2: 04-046: rat anti-human GPR20 antibody; heavy chain SEQ ID NO: 2, light chain SEQ ID NO: 7 (antibody, listed as Rattus norvegicus)
heavy: B1 heavy with V16E, T54S, Y69F, V112I, S127T
light: B1 light with M52I, K98E, A99P, T103A, S110I
modifications: SIGNAL (1)..(19); SIGNAL (1)..(20)
GPR20 extracellular region recognized (human GPR20): EC1, EC2
binding activity after substituting EC1 of human GPR20 with that of mouse-derived GPR20 [1]: lost binding activity

B3: 04-126: rat anti-human GPR20 antibody; heavy chain SEQ ID NO: 22, light chain SEQ ID NO: 27 (antibody, listed as Rattus norvegicus)
heavy: B1 heavy with V16E, Q24R, T54I, I56M, T60A, K65Q, I67V, A119T
light: B1 light with N72T, K98E, T103A
modifications: SIGNAL (1)..(19); SIGNAL (1)..(20)
GPR20 extracellular region recognized (human GPR20): EC1, EC2
binding activity after substituting EC1 of human GPR20 with that of mouse-derived GPR20 [1]: lost binding activity
